Our source for the koff values is paper PMC7877763 (2021).

Residue numbers refer to the chain shown, from its start. Names and notes keep the numbering of the source.

Assay [1] addresses GPR-foldon (foldon stabilized collagen model peptide containing a (GPP)5GPR(GPP)6 collagen sequence) (biotinylated (site not stated) for the BLI experiment). Kind of assay: BLI.
The target of assay [2] is full length pepsinized type I collagen from mouse tail tendon (mouse, UniProt P11087 152-1207; Q01149 86-1125). Kind of assay: SPR.
Sequence of full length pepsinized type I collagen from mouse tail tendon (P11087 152-1207, chain 1 of 2): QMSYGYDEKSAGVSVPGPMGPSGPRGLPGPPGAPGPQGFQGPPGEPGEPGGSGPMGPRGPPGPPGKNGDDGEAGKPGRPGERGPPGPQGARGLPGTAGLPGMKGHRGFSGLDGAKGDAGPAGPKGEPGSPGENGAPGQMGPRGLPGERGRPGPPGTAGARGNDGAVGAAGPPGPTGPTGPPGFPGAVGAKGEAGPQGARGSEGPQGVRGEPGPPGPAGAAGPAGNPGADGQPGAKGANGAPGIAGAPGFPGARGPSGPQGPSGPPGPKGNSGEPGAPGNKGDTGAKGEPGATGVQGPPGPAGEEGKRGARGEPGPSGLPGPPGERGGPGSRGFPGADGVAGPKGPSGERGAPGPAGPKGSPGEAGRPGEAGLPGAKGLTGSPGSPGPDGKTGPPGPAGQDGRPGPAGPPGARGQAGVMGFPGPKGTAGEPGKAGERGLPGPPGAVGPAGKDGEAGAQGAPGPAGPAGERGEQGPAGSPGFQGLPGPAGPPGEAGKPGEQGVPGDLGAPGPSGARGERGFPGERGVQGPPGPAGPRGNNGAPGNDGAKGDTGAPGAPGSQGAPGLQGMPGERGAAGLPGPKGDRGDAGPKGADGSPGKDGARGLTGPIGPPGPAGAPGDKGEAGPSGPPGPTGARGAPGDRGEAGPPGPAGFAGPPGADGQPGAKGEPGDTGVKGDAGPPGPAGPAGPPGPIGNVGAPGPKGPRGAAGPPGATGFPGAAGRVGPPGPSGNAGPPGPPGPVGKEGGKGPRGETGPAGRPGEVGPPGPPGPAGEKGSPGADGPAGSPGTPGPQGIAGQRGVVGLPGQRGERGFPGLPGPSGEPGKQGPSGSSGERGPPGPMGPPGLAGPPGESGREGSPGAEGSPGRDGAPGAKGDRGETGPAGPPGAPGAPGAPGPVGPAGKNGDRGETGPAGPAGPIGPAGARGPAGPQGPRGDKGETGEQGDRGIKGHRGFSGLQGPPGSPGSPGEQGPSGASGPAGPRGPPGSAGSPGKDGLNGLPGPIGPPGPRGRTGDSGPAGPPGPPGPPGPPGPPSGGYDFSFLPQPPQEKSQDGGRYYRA
Sequence of full length pepsinized type I collagen from mouse tail tendon (Q01149 86-1125, chain 2 of 2): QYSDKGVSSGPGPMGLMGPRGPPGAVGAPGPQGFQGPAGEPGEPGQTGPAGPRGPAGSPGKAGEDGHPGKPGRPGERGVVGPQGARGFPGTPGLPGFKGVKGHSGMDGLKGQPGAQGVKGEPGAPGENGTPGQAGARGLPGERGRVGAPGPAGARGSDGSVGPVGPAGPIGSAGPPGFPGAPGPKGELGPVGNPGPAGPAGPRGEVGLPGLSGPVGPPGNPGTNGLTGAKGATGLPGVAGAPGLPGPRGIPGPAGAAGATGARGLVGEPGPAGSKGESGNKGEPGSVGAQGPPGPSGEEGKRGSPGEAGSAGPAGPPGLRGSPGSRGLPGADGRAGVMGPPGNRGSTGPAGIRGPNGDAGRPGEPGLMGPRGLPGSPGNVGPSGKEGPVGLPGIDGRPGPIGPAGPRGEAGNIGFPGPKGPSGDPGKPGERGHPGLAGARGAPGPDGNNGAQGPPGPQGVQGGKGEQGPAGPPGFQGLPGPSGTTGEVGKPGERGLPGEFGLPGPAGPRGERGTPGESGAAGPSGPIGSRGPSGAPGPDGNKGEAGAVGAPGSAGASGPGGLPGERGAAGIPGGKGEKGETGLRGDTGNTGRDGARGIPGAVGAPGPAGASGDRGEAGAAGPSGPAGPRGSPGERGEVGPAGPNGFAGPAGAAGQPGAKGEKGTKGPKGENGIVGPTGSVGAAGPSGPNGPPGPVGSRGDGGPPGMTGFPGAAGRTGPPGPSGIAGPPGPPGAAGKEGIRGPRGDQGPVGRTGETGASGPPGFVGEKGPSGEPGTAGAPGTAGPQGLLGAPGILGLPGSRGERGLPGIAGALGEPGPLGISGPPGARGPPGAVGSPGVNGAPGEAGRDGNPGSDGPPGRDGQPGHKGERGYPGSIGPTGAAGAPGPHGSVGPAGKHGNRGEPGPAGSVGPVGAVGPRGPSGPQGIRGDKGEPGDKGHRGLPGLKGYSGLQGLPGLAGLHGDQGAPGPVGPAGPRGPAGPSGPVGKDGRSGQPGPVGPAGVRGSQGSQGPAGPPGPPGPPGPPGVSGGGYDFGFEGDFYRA

B1: recombinant canine HSP47-R222S (natural protein)
chain: LSPKAATLAERSAGLAFSLYQAMAKDQAVENILLSPVVVASSLGLVSLGGKATTASQAKAVLSAEQLRDEEVHAGLGELLRSLSNSTARNVTWKLGSRLYGPSSVSFAEDFVRSSKQHYNCEHSKINFRDKRSALQSINEWAAQTTDGKLPEVTKDVERTDGALLVNAMFFKPHWDEKFHHKMVDNSGFMVTRSYTVGVTMMHRTGLYNYYDDEKEKLQIVEMPLAHKLSSLIILMPHHVEPLERLEKLLTKEQLKIWMGKMQKKAVAISLPKGVVEVTHDLQKHLAGLGLTEAIDKNKADLSRMSGKKDLYLASVFHATAFEWDTEGNPFDQDIYGREELRSPKLFYADHPFIFLVRDTQSGSLLFIGRLVRPKGDKMRDEL
For B1, the figures for the koff in assay [1] and in assay [2] were 0.0186 s⁻¹ and 0.003 s⁻¹, respectively.

B2: recombinant wild-type canine HSP47 (natural protein)
chain: B1 chain with S187R
Regarding B2, the koff amounted to 0.0185 s⁻¹ in assay [1] and 0.011 s⁻¹ in assay [2].
